The target of the series is T1, VexR-MBP (Vibrio cholerae O1 El Tor N16961) (UniProt Q9KVI0).
T1 sequence: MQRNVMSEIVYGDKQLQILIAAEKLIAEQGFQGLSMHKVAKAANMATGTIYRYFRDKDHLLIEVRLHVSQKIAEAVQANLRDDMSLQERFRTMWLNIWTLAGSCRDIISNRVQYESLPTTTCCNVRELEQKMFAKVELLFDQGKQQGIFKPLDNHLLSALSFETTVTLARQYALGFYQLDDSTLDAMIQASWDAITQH
The series can be described thus: EMSA.

For the sequence “GCGGGAGTCGGCAGCGATAATAATCCGCTCACCGAGGATTACCAACAAAGAAACTGCCTTTACAAAAATTTACTGCACAAGTGTATTGCAAAACAGGGGCGCTGCCGACTCCCGC (double strand) [vexR1]”, the binding entry is “no binding”. The value for “GCGGGAGTCGGCAGCGGCCGTACACTATTTCAGACATCACATTTCTCTGCAAATGAACGGTTGTTCATTATAGCGGCTAATACCCCCTGTTTTGCACGCTGCCGACTCCCGC (double strand) [vexR2]” was “binds”.

Values taken from PMC4335029.
